Results from IntAct's records for PubMed 11027267.

B1: KRR1 small subunit processome component (Saccharomyces cerevisiae), P25586 (parent)
chain: MVSTHNRDKPWDTDDIDKWKIEEFKEEDNASGQPFAEESSFMTLFPKYRESYLKTIWNDVTRALDKHNIACVLDLVEGSMTVKTTRKTYDPAIILKARDLIKLLARSVPFPQAVKILQDDMACDVIKIGNFVTNKERFVKRRQRLVGPNGNTLKALELLTKCYILVQGNTVSAMGPFKGLKEVRRVVEDCMKNIHPIYHIKELMIKRELAKRPELANEDWSRFLPMFKKRNVARKKPKKIRNVEKKVYTPFPPAQLPRKVDLEIESGEYFLSKREKQMKKLNEQKEKQMEREIERQEERAKDFIAPEEEAYKPNQN
partner: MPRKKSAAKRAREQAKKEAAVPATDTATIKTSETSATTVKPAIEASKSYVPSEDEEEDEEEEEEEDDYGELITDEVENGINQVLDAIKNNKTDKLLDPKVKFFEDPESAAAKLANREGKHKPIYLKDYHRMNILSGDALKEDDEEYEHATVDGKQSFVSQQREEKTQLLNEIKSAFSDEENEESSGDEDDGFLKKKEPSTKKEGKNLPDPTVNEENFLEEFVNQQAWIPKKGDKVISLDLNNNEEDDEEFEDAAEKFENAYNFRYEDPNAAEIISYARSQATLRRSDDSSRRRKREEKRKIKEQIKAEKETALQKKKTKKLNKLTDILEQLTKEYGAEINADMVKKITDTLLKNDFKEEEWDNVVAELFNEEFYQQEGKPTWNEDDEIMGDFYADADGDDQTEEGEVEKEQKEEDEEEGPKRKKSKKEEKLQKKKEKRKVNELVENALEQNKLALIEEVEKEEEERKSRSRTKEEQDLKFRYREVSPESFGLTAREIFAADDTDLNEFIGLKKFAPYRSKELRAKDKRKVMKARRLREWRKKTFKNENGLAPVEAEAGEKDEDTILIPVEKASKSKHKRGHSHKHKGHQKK

Variants of: B1
Conditions: with kri1_yeast KRI1, P42846
For F45L;L95S;R207G, the “effect of a mutation on the interaction” value was “decreasing interaction”.
In the case of K20E;K66N;C162R;D261A, the “effect of a mutation on the interaction” value is reported as “decreasing interaction”.
